B1: EF‐CW (peptide)
peptide: KWKWQWN
notes: designed variant of enhancing factor-C (EF-C), pattern KXKXQXN with X = W; self-assembling peptide; made on Fmoc-Asn(Trt) Wang resin; also called KWKWQWN; source: synthetic peptide (Fmoc-SPPS, preparative RP-HPLC, purity ≥ 90 %)
B2: EF‐CV (peptide)
peptide: KVKVQVN
notes: designed variant of enhancing factor-C (EF-C), pattern KXKXQXN with X = V; self-assembling peptide; made on Fmoc-Asn(Trt) Wang resin; also called KVKVQVN; source: synthetic peptide (Fmoc-SPPS, preparative RP-HPLC, purity ≥ 90 %)
B3: EF‐CI (peptide)
peptide: KIKIQIN
notes: designed variant of enhancing factor-C (EF-C), pattern KXKXQXN with X = I; self-assembling peptide; made on Fmoc-Asn(Trt) Wang resin; also called KIKIQIN; source: synthetic peptide (Fmoc-SPPS, preparative RP-HPLC, purity ≥ 90 %)
B4: EF‐CF (peptide)
peptide: KFKFQFN
notes: designed variant of enhancing factor-C (EF-C), pattern KXKXQXN with X = F; self-assembling peptide; made on Fmoc-Asn(Trt) Wang resin; also called KFKFQFN; source: synthetic peptide (Fmoc-SPPS, preparative RP-HPLC, purity ≥ 90 %)
B5: EF‐CL (peptide)
peptide: KLKLQLN
notes: designed variant of enhancing factor-C (EF-C), pattern KXKXQXN with X = L; self-assembling peptide; made on Fmoc-Asn(Trt) Wang resin; also called KLKLQLN; source: synthetic peptide (Fmoc-SPPS, preparative RP-HPLC, purity ≥ 90 %)

Molecular target: the molecule itself
Assay: dynamic light scattering; self-assembly; peptide diluted from 10 mM DMSO stock into DPBS (6 μM to 1 mM), 24 h incubation, room temperature; derived count rate below 5 kcps defined as no aggregation

Protein | aggregation concentration [µM]
B1 | ≤ 100
B2 | ≤ 100
B3 | ≤ 100
B4 | ≤ 100
B5 | ≤ 100

Molecular target: the molecule itself
Assay: conversion rate assay (3 kDa centrifugal filtration, fluorescamine fluorescence); self-assembly; 1 mM peptide incubated 24 h, monomers separated from fibers at 12 000 g for 60 min at 4 °C; filtrated against nonfiltrated fluorescence

Protein | conversion rate [%]
B1 | 94
B2 | 62
B3 | 93
B4 | 94
B5 | 73
